The values below come from JP2001333780A (dated 2001).

For this assay, the target named is T1, 上皮細胞増殖因子レセプター(EGFR) (UniProt P00533 25-1210, limits assumed).
T1 construct: whole, on cells; The antigen is formalin-fixed A431 cells; also called EGF レセプター; EGFレセプター
The assay can be described thus: competition ELISA with HRP-labelled B4G7 on formalin-fixed A431 cells. Background: An ELISA detects its analyte on a solid surface through an enzyme-linked reagent.

B1: 一本鎖scBH抗体 (scFv)
chain: QVQLQQSGAELVRPGASVKLSCTASGFNIKDTLMHWVKQRPEQGLEWIGWIDPEDGNTKYVRKFQGKATITADTSSNTAYLQVSSLTSEDTAIYYCVRGGSYGNWAYWGQGTTVTVSSDIELTQSPASLSASVGETVTITCRTSENIYSYFAWYQQKQGKSPHLLVYNAKTLAEGVPSRFSGSGSGTQFSLKINSLQPEDFGIYFCQHHYGSLHTFGGGTKLEIK
With B1, the “抗体一価あたりの結合力 (relative to B4G7抗体)” value was ~0.33 fold of B4G7 antibody, per antibody valence.

B2: CaC 型 ヒト型一本鎖抗体 (scFv)
scFv: MGHHHHHHQVQLVQSGAEVKKPGASVKVSCKASGFNIKDTLMHWVRQAPGQGLEWMGWIDPEDGNTKYVRKFQGRVTMTRDTSTSTVYMELSSLRSEDTAVYYCARGGSYGNWAYWGQGTTVTVSSGGGGSGGGGSGGGGSDIQMTQSPSSLSASVGDRVTITCRTSENIYSYFAWYQQKSGKAPKLLIYNAKTLAEGVPSRFSGSGSGTEFTLTISSLQPEDFATYFCQHHYGSLHTFGGGTTVDIKHHHHHHGGGS
notes: Humanised scFv with VH of Ca type and VL of C type
Regarding B2, the binding result is reported as “binds”.
